Laboratory results reported in patent US20230227537A1.
Several values for one entry are separate records, joined by “and”; a condition that tells them apart may be missing. Identical values can stand only once.

Target: Mouse IgG1 Fc fused SARS-CoV-2 RBD (Sino Biological) (SARS-CoV-2; mouse), P0DTC2
Conditions: remark: other sources report otherwise

B1: VHH72_S56A-Fc (P. pastoris) (Fc fusion)
chain: QVQLQESGGGLVQAGGSLRLSCAASGRTFSEYAMGWFRQAPGKEREFVATISWSGGATYYTDSVKGRFTISRDNAKNTVYLQMNSLKPDDTAVYYCAAAGLGTVVSEWDYDYDYWGQGTQVTVSS
Question: How did the % Signal decrease over 8 min dissociation turn out when B1 was run?
Answer: 6% and 7%

Question: And the Kd?
Answer: 0.0496 nM and 0.0541 nM

Question: And the koff?
Answer: 0.000123 s⁻¹ and 0.000146 s⁻¹

Question: And the kon?
Answer: 2.48e+06 M⁻¹ s⁻¹ and 2.69e+06 M⁻¹ s⁻¹
